Experimental data from patent publication US20260070975A1 (SANTA ANA BIO, published 2026).
Residue numbers refer to the chain shown, from its start.

What was measured:
[1] = target: T1, Human siglec-6 expressed on the cell surface (HMC1.2 cells; HEK293 cells expressing human siglec-6) (human, UniProt O43699 27-453); assay: flow cytometry on HMC1.2 cells
T1 construct: whole, on cells; also called cell surface expressed siglec-6; CD327
Method: (§1) Target binding of siglec-6 antibodies to siglec-6-expressing cells was assessed by flow cytometry. Cultured HMC1.2 cells were resuspended in FACS Blocking Buffer (PBS+10% normal human serum) for 30 minutes. Following washing, cells were incubated with siglec-6 antibodies in FACS Buffer (PBS+0.5% bovine serum albumin+0.09% sodium azide) and incubated at 4° C. for 30 minutes, washed and incubated with PE-labeled anti-human or anti-mouse secondary antibodies. Cells were incubated at 4° C. for 30 minutes in the dark. Following washing, cytofluorimetric analysis was conducted using a BD FACS Symphony A3 (BD Biosciences). Cells were sorted by scatter properties and separated for single cell analysis using side scatter width vs side scatter area. Antibody binding to cells was quantitated by measuring fluorescent emissions of excitation wavelength of 561 nm using a 586/15 nm filter. All tested siglec-6 antibodies were capable of binding to cells expressing siglec-6.

[2] = target: T2, c-Kit expressed on the cell surface of M-07e cells (human, UniProt P10721 26-976); assay: flow cytometry on M-07e cells
T2 construct: whole, on cells; also called cell surface expressed c-Kit; CD117
T2 sequence (P10721 26-976): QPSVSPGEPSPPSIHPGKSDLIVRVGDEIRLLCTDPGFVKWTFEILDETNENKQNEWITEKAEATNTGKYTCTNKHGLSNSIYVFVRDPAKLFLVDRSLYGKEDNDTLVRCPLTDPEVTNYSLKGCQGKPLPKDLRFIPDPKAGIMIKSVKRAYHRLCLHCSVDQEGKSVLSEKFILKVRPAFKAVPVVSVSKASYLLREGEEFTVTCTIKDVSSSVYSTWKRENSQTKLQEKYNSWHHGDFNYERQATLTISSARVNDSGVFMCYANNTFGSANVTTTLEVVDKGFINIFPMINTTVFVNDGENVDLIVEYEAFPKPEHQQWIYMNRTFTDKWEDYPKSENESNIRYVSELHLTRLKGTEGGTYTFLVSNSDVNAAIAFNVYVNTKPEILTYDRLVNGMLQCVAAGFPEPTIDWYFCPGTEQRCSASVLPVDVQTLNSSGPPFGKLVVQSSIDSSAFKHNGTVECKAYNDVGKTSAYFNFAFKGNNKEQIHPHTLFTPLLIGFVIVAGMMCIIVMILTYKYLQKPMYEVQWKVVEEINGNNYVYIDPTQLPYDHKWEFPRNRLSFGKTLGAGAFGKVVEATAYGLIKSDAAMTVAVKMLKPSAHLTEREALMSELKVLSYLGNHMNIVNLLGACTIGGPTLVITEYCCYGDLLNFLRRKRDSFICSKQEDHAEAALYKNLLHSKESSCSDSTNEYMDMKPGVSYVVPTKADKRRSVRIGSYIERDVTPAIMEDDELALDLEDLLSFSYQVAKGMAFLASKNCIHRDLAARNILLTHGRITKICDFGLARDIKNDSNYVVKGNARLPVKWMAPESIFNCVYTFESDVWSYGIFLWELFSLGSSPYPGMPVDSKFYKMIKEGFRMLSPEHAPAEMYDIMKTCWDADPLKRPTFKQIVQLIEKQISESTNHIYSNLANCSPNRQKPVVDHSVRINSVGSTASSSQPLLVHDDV
Method: as §1, with “c-Kit” for “siglec-6”, “c-Kit-expressing” for “siglec-6-expressing”, “M-07e” for “HMC1.2”, “anti-human” for “anti-human or anti-mouse”, “antibody.” for “antibodies.”, “c-Kit.” for “siglec-6.”

[3] = target: T3, His-tagged PDGFRb extracellular domain (UniProt P09619 33-532, limits assumed); assay: ELISA, His-tagged extracellular domain coated
T3 construct: extracellular domain; also called c-Kit family member; not shown: His tag
T3 sequence (P09619 33-532 limits assumed): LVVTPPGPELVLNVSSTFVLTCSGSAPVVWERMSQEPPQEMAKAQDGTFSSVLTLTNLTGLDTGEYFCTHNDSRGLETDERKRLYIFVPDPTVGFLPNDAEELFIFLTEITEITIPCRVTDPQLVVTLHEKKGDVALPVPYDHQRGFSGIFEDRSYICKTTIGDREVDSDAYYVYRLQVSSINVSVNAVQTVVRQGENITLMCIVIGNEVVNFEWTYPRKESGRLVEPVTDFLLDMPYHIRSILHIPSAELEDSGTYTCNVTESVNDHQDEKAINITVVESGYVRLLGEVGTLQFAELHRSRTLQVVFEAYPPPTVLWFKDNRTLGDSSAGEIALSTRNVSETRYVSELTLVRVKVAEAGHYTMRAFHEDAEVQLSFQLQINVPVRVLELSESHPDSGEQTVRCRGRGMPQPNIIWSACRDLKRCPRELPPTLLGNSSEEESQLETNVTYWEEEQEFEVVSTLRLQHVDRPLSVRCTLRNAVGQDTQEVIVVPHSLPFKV
Method: (§2) His-tagged human c-Kit, His-tagged cynomolgus c-Kit, and His-tagged PDGFRa, PDGFRb, CSF1R, and FLT3 extracellular domains were immobilized on 96 well ELISA plates. Plates were washed with PBST (Phosphate buffered saline+0.05% Tween 20) and blocked for 1 hour with 1% BSA in PBS. Following washing with PBST, mAbs were added to the coated plate and incubated for 2 hours at room temperature. Plates were washed and incubated with HRP-conjugated goat anti-human IgG secondary antibody for 1 hour at room temperature. Following washing, antibody binding was detected colorimetrically by adding 3,3′,5,5′-tetramethylbenzidine (TMB) and incubated at room temperature for 10-20 minutes before adding 2.5N sulfuric acid stopping solution. Absorbance at 450 nm was measured on a plate reader (PerkinElmer). Data was analyzed using GraphPad Prism.

[4] = target: T4, His-tagged FLT3 extracellular domain (UniProt P36888 27-543, limits assumed); assay: ELISA, His-tagged extracellular domain coated
T4 construct: extracellular domain; also called c-Kit family member; not shown: His tag
T4 sequence (looked up): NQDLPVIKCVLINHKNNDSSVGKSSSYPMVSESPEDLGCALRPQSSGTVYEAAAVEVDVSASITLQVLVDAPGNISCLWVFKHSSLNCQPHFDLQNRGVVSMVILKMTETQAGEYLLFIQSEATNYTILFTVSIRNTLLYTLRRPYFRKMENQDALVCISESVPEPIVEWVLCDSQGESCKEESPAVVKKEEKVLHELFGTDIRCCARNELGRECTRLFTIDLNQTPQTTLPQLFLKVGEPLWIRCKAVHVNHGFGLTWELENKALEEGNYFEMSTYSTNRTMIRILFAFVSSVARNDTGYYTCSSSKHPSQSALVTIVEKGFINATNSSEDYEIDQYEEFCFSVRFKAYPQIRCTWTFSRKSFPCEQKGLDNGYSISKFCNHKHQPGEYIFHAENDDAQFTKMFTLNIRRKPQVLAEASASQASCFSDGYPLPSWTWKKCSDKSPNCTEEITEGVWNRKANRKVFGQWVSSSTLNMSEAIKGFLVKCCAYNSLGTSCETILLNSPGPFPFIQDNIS
Method: as §2

[5] = target: T5, His-tagged CSF1R extracellular domain (UniProt P07333 20-517, limits assumed); assay: ELISA, His-tagged extracellular domain coated
T5 construct: extracellular domain; also called c-Kit family member; not shown: His tag
T5 sequence (P07333 20-517 limits assumed): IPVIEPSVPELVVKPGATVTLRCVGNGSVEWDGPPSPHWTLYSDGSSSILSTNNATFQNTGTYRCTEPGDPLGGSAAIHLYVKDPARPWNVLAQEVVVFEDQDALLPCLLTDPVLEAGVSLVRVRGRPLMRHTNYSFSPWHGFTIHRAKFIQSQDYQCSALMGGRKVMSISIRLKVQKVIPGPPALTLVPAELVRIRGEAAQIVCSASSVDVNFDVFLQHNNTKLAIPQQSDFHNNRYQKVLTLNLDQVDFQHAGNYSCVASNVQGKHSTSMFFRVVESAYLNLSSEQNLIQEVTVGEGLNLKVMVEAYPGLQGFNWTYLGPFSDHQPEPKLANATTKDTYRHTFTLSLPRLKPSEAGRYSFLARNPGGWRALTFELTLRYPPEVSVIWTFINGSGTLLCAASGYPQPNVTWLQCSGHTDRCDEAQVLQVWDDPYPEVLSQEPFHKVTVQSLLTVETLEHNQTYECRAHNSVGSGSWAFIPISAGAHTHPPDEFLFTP
Method: as §2

[6] = target: T6, His-tagged PDGFRa extracellular domain (UniProt P16234 24-528, limits assumed); assay: ELISA, His-tagged extracellular domain coated
T6 construct: extracellular domain; also called c-Kit family member; not shown: His tag
T6 sequence (P16234 24-528 limits assumed): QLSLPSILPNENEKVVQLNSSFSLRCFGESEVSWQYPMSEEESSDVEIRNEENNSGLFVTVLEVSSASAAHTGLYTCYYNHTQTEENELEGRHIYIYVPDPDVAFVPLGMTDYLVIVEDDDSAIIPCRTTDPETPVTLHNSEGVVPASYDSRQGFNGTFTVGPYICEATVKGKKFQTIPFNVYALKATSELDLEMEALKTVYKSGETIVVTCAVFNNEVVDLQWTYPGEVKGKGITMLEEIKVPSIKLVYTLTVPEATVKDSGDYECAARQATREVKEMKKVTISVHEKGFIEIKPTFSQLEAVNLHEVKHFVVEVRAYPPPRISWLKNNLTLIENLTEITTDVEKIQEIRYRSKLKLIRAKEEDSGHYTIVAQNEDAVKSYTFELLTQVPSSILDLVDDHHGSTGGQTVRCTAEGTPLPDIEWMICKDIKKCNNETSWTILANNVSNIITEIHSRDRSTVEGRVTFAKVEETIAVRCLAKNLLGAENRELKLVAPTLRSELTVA
Method: as §2

[7] = target: T2, c-Kit expressed on the cell surface of …; assay: cell-based or functional assay
[8] = target: T7, Cynomolgus c-Kit (BLI analyte) (cynomolgus); assay: BLI (Octet), antibody on capture sensor
T7 construct: also called Cynomoguls c-Kit
Method: (§3) Further, binding affinities of c-Kit antibodies to human c-Kit and cynomolgus c-Kit were measured by biolayer interferometry ([…]) using an Octect instrument. Briefly, capture sensors were loaded with test antibodies with 3-fold dilutions. The association and dissociation rates to were determined and used to calculate the equilibrium dissociation constant KD (Table 3).

[9] = target: Human c-Kit (BLI analyte) (human, UniProt P10721 26-520, limits assumed); assay: BLI (Octet), antibody on capture sensor
Chain of Human c-Kit (BLI analyte) (P10721 26-520 limits assumed): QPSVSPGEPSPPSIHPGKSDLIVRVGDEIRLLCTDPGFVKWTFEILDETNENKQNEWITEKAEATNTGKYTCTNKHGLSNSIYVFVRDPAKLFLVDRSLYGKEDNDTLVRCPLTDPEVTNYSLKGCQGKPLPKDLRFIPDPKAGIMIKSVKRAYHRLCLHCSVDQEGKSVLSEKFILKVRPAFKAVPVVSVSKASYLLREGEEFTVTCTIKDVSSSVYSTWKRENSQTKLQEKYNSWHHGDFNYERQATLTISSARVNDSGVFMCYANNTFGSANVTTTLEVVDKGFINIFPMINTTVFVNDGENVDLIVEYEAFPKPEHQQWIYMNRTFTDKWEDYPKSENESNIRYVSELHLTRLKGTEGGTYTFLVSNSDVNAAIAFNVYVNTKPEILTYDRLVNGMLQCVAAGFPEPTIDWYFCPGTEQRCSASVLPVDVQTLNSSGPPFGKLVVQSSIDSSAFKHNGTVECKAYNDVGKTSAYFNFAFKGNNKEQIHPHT
Method: as §3

[10] = target: T2, c-Kit expressed on the cell surface of …; assay: cell-based or functional assay; remark: listed apart in the source

T1 sequence (O43699 27-453): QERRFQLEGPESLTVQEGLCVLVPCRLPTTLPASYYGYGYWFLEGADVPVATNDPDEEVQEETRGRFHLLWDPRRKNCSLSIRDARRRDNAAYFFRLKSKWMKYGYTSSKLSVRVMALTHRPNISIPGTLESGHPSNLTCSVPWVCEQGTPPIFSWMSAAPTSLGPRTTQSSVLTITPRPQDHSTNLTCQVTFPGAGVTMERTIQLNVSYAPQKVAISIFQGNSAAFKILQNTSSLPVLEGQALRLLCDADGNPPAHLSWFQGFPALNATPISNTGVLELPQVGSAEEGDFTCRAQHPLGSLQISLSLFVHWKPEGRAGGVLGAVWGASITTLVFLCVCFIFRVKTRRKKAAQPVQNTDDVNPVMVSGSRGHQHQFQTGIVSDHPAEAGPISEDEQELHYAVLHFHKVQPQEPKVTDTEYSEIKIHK

B1: Murine anti-siglec-6 RND (mRND) (antibody, mouse IgG2a, kappa, V domains shown)
VH: QVQLQQPGAELVKPGASVKLSCKASGYAFTSYWMHWVKLRPGQGFEWIGEIYPTNGGTTYNEKFKRKATLTVDKSSSTAYMQLSSLTSEDSAVYYCTIEDFYAMDYWGQGTSVTVSS
VL: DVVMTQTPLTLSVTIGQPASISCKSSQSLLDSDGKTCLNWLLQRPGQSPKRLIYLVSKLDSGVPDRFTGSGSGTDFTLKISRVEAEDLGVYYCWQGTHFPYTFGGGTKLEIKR
notes: also called murine RND; copies: 2 + 2
MFI [1]: 1970 MFI
Percent Positive for Siglec-6 on HMC1.2 cells [1]: 99.9%

B2: hSR1-1 (antibody, human IgG1, kappa, V domains shown)
VH: QVQLVQSGAEVKKPGASVKVSCKASGYTFTSYNMHWVRQAPGQGLEWMGVIYSGNGDTSYAQKFQGRVTMTADTSTSTAYMELSSLRSEDTAVYYCARERDTRFGNWGQGTLVTVSS
VL: DIQLTQSPSSLSASVGDRATITCRASESVDIYGNSFMHWYQQKPGKAPKLLIYLASNLESGVPSRFSGSGSGTDFTLTISSVQPEDFATYYCQQNNEDPYTFGQGTKLEIKR
notes: Humanized anti-c-Kit antibody; also called humanized SR1-1; hSR1-H2 / hSR1-L2
Measuring Fluorescent Intensity (MFI) [2]: 5020 MFI
Percent Positive for c-Kit on M-07e cells [2]: 99.5%
binding result [3]: no binding
binding result [4]: no binding
binding result [5]: no binding
binding result [6]: no binding
IC50, inhibition of SCF-dependent proliferation of M-07e cells [7]: 0.141 nM
Kd [8]: 0.232 nM
Kd [9]: 0.199 nM

B3: anti-siglec/anti-c-Kit bispecific JML-1/hSR1-1 (bispecific antibody, V domains shown)
VH 1: KVQLLESGGGLVQPGRSLRLSCAASGFTFDDYGMHWVRQAPGKGLEWVSGISWNSGSIGYADSVKGRFTISRDNSKNTLYLQMNSLRAEDTAVYYCARGGQTIDIWGQGTMVTVSS
VL 1: not shown
VH 2: B2 VH
VL 2: DIQLTQSPSSLSASVGDRATITCRASESVDIYGNSFMHWYQQKPGKAPKLLIYLASNLESGVPSRFSGSGSGTDFTLTISSVQPEDFATYYCQQNNEDPYTFGQGTKLEIK
IC50 (read off the curve) [10]: ~0.3 nM

B4: anti-siglec/anti-c-Kit bispecific hRND-3/hSR1-1 (bispecific antibody, V domains shown)
VH 1: QVQLVQSGAEVKKPGASVKLSCKASGYAFTSYWMHWVRQAPGQRLEWIGEIYPTNGGTTYAQKFQGRATLTVDKSTSTAYMELSRLRSDDTAVYYCTIEDFYAMDYWGQGTTVTVSS
VL 1: DIVMTQTPLSLSVTPGQPASISCKSSQSLLDSDGKTSLNWLLQKPGQSPQRLIYLVSKLDSGVPDRFSGSGSGTDFTLKISRVEAEDVGVYYCWQGTHFPYTFGQGTKLEIK
VH 2: B2 VH
VL 2: B3 VL 2
IC50 (read off the curve) [10]: ~0.2 nM

B5: hSR1-3 (antibody, human IgG1, kappa, V domains shown)
VH: B2 VH with T74K
VL: B2 VL
notes: also called humanized SR1-3; hSR1-H2b / hSR1-L2
Measuring Fluorescent Intensity (MFI) [2]: 5190 MFI
Percent Positive for c-Kit on M-07e cells [2]: 99.8%
binding result [3]: no binding
binding result [4]: no binding
binding result [5]: no binding
binding result [6]: no binding
IC50, inhibition of SCF-dependent proliferation of M-07e cells [7]: 0.113 nM
Kd [8]: 0.332 nM
Kd [9]: 0.256 nM

B6: hSR1-4 (antibody, human IgG1, kappa, V domains shown)
VH: B2 VH with V20M, M48I, V68A, M70L, T74K
VL: B2 VL
notes: also called humanized SR1-4; hSR1-H3b / hSR1-L2
Measuring Fluorescent Intensity (MFI) [2]: 4960 MFI
Percent Positive for c-Kit on M-07e cells [2]: 99.8%
binding result [3]: no binding
binding result [4]: no binding
binding result [5]: no binding
binding result [6]: no binding
IC50, inhibition of SCF-dependent proliferation of M-07e cells [7]: 0.139 nM
Kd [8]: 0.563 nM
Kd [9]: 0.386 nM

B7: hSR1-2 (antibody, human IgG1, kappa, V domains shown)
VH: B2 VH with V20M, M48I, V68A, M70L
VL: B2 VL
notes: also called humanized SR1-2; hSR1-H3 / hSR1-L2
Measuring Fluorescent Intensity (MFI) [2]: 5200 MFI
Percent Positive for c-Kit on M-07e cells [2]: 99.7%
binding result [3]: no binding
binding result [4]: no binding
binding result [5]: no binding
binding result [6]: no binding
IC50, inhibition of SCF-dependent proliferation of M-07e cells [7]: 0.142 nM
Kd [8]: 0.389 nM
Kd [9]: 0.245 nM

B8: hSR1-6 (antibody, human IgG1, kappa, V domains shown)
VH: B2 VH with V20M, M48I, V68A, M70L
VL: B2 VL with G72R
notes: also called humanized SR1-6; hSR1-H3 / hSR1-L2r
Measuring Fluorescent Intensity (MFI) [2]: 3590 MFI
Percent Positive for c-Kit on M-07e cells [2]: 99.4%
binding result [3]: no binding
binding result [4]: no binding
binding result [5]: no binding
binding result [6]: no binding
IC50, inhibition of SCF-dependent proliferation of M-07e cells [7]: 0.152 nM
Kd [8]: 0.296 nM
Kd [9]: 0.247 nM

B9: hSR1-5 (antibody, human IgG1, kappa, V domains shown)
VH: B2 VH
VL: B2 VL with G72R
notes: also called humanized SR1-5; hSR1-H2 / hSR1-L2r
Measuring Fluorescent Intensity (MFI) [2]: 4030 MFI
Percent Positive for c-Kit on M-07e cells [2]: 99.5%
binding result [3]: no binding
binding result [4]: no binding
binding result [5]: no binding
binding result [6]: no binding
IC50, inhibition of SCF-dependent proliferation of M-07e cells [7]: 0.141 nM
Kd [8]: 0.405 nM
Kd [9]: 0.256 nM

B10: Murine anti-c-Kit SR1 (mSR1) (antibody, mouse IgG2a, kappa)
heavy: QVQLQQPGAELVKPGASVKMSCKASGYTFTSYNMHWVKQTPGQGLEWIGVIYSGNGDTSYNQKFKGKATLTADKSSSTAYMQINSLTSEDSAVYYCARERDTRFGNWGQGTLVTVSAAKTTAPSVYPLAPVCGDTTGSSVTLGCLVKGYFPEPVTLTWNSGSLSSGVHTFPAVLQSDLYTLSSSVTVTSSTWPSQSITCNVAHPASSTKVDKKIEPRGPTIKPCPPCKCPAPNLLGGPSVFIFPPKIKDVLMISLSPIVTCVVVDVSEDDPDVQISWFVNNVEVHTAQTQTHREDYNSTLRVVSALPIQHQDWMSGKEFKCKVNNKDLPAPIERTISKPKGSVRAPQVYVLPPPEEEMTKKQVTLTCMVTDFMPEDIYVEWTNNGKTELNYKNTEPVLDSDGSYFMYSKLRVEKKNWVERNSYSCSVVHEGLHNHHTTKSFSRTPGK
light: NIVLTQSPASLAVSLGLRATISCRASESVDIYGNSFMHWYQQKPGQPPKLLIYLASNLESGVPARFSGSGSRTDFTLTIDPVEADDAATYYCQQNNEDPYTFGGGTKLEIKRADAAPTVSIFPPSSEQLTSGGASVVCFLNNFYPKDINVKWKIDGSERQNGVLNSWTDQDSKDSTYSMSSTLTLTKDEYERHNSYTCEATHKTSTSPIVKSFNRNEC
IC50, inhibition of SCF-dependent proliferation of M-07e cells [7]: 0.283 nM
